Measured values from PMC11508082 (PLOS Pathogens, 2024).

Biological target: the molecule itself
Test: SDS-PAGE and anti-6xHis immunoblot of Ni-affinity elution fractions

B1: 6xHis tagged PdhR (natural protein)
chain: MAYSKIRQPKLSDVIEQQLEFLILEGTLRPGEKLPPERELAKQFDVSRPSLREAIQRLEAKGLLLRRQGGGTFVQSSLWQSFSDPLVELLSDHPESQYDLLETRHALEGIAAYYAALRSTDEDKERIRELHHAIELAQQSGDLDAESNAVLQYQIAVTEAAHNVVLLHLLRCMEPMLAQNVRQNFELLYSRREMLPLVSSHRTRIFEAIMAGKPEEAREASHRHLAFIEEILLDRSREESRRERSLRRLEQRKN
notes: also called PdhR-his; recombinant PdhR-his; source: E. coli BL21 DE3 (pET21a(+)), purified (Ni2+ chelating column, HisTrap)
- stoichiometry N: 2
